# Source: paper PMC4938799, “LD Motif Recognition by Talin: Structure of the Talin-DLC1 Complex” (Structure(London, England:1993), 2016)
# B1: GST-R8: GST-tagged talin R8, amino acids 1,453–1,580 (protein)
# chain: NSQAGQQGLVEPTQFARANQAIQMACQSLGEPGCTQAQVLSAATIVAKHTSALCNSCRLASARTANPTAKRQFVQSAKEVANSTANLVKTIKALDGDFTEENRAQCRAATAPLLEAVDNLSAFASNPE
# modifications: left off: GST, end not stated, kept
# Legend:
# endogenous RIAM = assay: GST pull-down of endogenous RIAM in A549 cells; assay type: cell-based, human; details: A549 cell extracts, anti-RIAM immunoblot
# From the text: However, as talin R8 interacts with RIAM ([Goult et al., 2013b]) and paxillin (shown here) in addition to DLC1, we used several approaches to evaluate whether binding of talin R8 to endogenous RIAM or paxillin might have contributed to the observed results. For RIAM, the level of expression in the cell lines used here varied from very low to undetectable. To detect RIAM protein in any of the cell extracts, we had to use an anti-RIAM immunoprecipitation step followed by anti-RIAM immunoblotting. Using these conditions, endogenous RIAM was detected in A549 and H358 cells, but not in 293T cells (Figure S5A).
# Figure S5, related to figure 6. […]
# form a detectable complex with GST-talin R8.
# (A) The expression of endogenous RIAM in cell lines. Cell extracts were subjected to immunoprecipitation followed by immunoblotting with anti-RIAM antibody.
# (B) A complex between GST-talin R8 and endogenous RIAM is undetectable in A549 cells.
# A549 cells were co-transfected with GFP-DLC1 and the GST constructs indicated. Cell extracts were subject to a glutathione bead pull down assay followed by immunoblotting with anti-GST and anti-RIAM antibodies on the same membrane (left). No complex between GST-talin R8 and RIAM could be detected. Under the same conditions, wild-type GST-R8 pulled-down the co-transfected GFP-DLC1; the immunoblot with anti-GST and anti-DLC1 on the same membrane is shown (right). […]
# endogenous paxillin = assay: GST pull-down of endogenous paxillin in A549 and H358 cells; assay type: cell-based, human; details: anti-paxillin immunoblot
# From the text: To investigate whether the biological effects of GST-R8 might be partly mediated via paxillin, we first confirmed that endogenous paxillin is expressed in cell lines A549, H358, and 293T (Figure S6A). […] As a positive control, HEK293 cells were co-transfected with a paxillin-DDK construct (OriGene) and GST-R8 (wild-type, R1544E and 2E mutants), followed by a GST pull-down assay.
# Figure S6, related to figure 5. Binding of GST-talin R8 to endogenous paxillin is undetectable in A549 and H358 cells.
# (A) The expression of endogenous paxillin in cell lines. Cell extracts were assayed by immunoblotting with anti-paxillin antibody.
# (B) A complex of GST-talin R8 with endogenous paxillin is undetectable in A549 (top) and H358 (bottom) cells. Cells were transfected with the GST constructs indicated, and cell extracts subjected to a glutathione bead pull down assay followed by immunoblotting with anti-GST and anti-paxillin antibodies on the same membrane.
# (C) Wild-type GST-talin R8 forms a complex with transfected paxillin in 293T cells. […]
# G418 colony growth, soft agar growth and cell migration assays - As described previously (Qian et al., 2009), transfected A549 cells were counted, and equal numbers of cells were seeded in […]
molecule,measurement,setting,value
B1,complex with endogenous RIAM,endogenous RIAM,did not detect a GST-R8 complex
same,complex with endogenous RIAM,endogenous RIAM; listed as GST-talin R8,undetectable
same,complex with endogenous paxillin,endogenous paxillin,insufficient to detect binding
same,complex with endogenous paxillin,endogenous paxillin; listed as GST-talin R8,undetectable
